# B1: Human His-Gαi3 WT [human] / Fluorescein-labelled GIV peptide (residues 1,671–1,701) [modified: 5,6-carboxyfluorescein coupled to the resin-bound peptide after chain elongation; 5,6-carboxyfluorescein coupled to the resin-bound peptide … (parent complex)
# chain 1: MGCTLSAEDKAAVERSKMIDRNLREDGEKAAKEVKLLLLGAGESGKSTIVKQMKIIHEDGYSEDECKQYKVVVYSNTIQSIIAIIRAMGRLKIDFGEAARADDARQLFVLAGSAEEGVMTPELAGVIKRLWRDGGVQACFSRSREYQLNDSASYYLNDLDRISQSNYIPTQQDVLRTRVKTTGIVETHFTFKDLYFKMFDVGGQRSERKKWIHCFEGVTAIIFCVALSDYDLVLAEDEEMNRMHESMKLFDSICNNKWFTETSIILFLNKKDLFEEKIKRSPLTICYPEYTGSNTYEEAAAYIQCQFEDLNRRKDTKEIYTHFTCATDTKNVQFVFDAVTDVIIKNNLKECGLY
# chain 2: KTGSPGSEVVTLQQFLEESNKLTSVQIKSSS
# B2: Human His-Gαi3 WT [human] / Fluorescein-labelled RGS12 GoLoco peptide (residues 1,185–1,221) [modified: 5,6-carboxyfluorescein coupled to the resin-bound peptide after chain elongation; 5,6-carboxyfluorescein coupled to the resin-bound … (parent complex)
# chain 1: B1 chain 1
# chain 2: DEAEEFFELISKAQSNRADDQRGLLRKEDLVLPEFLR
# Variants of: B1
# Experiment: fluorescence polarisation
row,Variant,Kd [nM]
1,chain 1 L39A,3080
2,chain 1 L36A,706
3,chain 1 F259A,1260
4,chain 1 S252A,243
5,chain 1 W258F,1820
6,chain 1 K257A,870
7,chain 1 V218A,362
8,chain 1 L37A,478
9,chain 1 I184A,1910

# Variants of: B1
# Experiment: fluorescence polarisation
# Remark: another data set of the same source
row,Variant,Kd [nM]
1,chain 1 K317A,590
2,chain 1 K317W,510
3,chain 1 R313A,800

# Variants of: B2
# Experiment: fluorescence polarisation
row,Variant,Kd [nM]
1,chain 1 V218A,104
2,chain 1 F259A,187
3,chain 1 K35A,152
4,chain 1 N256E,314
5,chain 1 F215A,551
6,chain 1 L39A,176
7,chain 1 L37A,80
8,chain 1 W258F,63
9,chain 1 L36A,119
10,chain 1 I184A,83
11,chain 1 N256A,77
12,chain 1 K257A,86

# Reference: paper PMC5454376 (2017)
